Results as given in article PMC1334386 (PLoS Biology, 2006).

B1: MDM2 fragment (residues 223–289) (domain or fragment, human, UniProt Q00987 223-289, looked up)
chain: DLDAGVSEHSGDWLDQDSVSDQFSVEFEVESLDSEDYSLSEEGQELSDEDDEVYQVTVYQAGESDTD
notes: source: purified to homogeneity as previously described
B2: MDM2 fragment (residues 170–232) (domain or fragment, human, UniProt Q00987 170-232, looked up)
chain: ENSDELSGERQRKRHKSDSISLSFDESLALCVIREICCERSSSSESTGTPSNPDLDAGVSEHS
notes: as for B1
B3: MDM2 (residues 208–289) (domain or fragment, human, UniProt Q00987 208-289, looked up)
chain: ERSSSSESTGTPSNPDLDAGVSEHSGDWLDQDSVSDQFSVEFEVESLDSEDYSLSEEGQELSDEDDEVYQVTVYQAGESDTD
notes: also called MDM2 fragment; source: purified to homogeneity as previously described
B4: MDM2 peptide (residues 208–242) (peptide, UniProt Q00987 208-242, looked up)
peptide: ERSSSSESTGTPSNPDLDAGVSEHSGDWLDQDSVS
notes: human MDM2, residues 208-242; also called MDM2 (residues 208–242) peptide

Experiments:
Settings in all cases: both partners purified
[1] = target: T1, HAUSP TRAF-like domain (residues 53–206) (UniProt Q93009 53-206); assay: SEC; gel filtration on Superdex-200 (10/30); proteins incubated at 4 °C for at least 45 min; 25 mM Tris (pH 8.0), 100 mM NaCl, 2 mM DTT; fractions on SDS-PAGE, Coomassie
T1 construct: Cloned into pGEX-2T; source: E. coli BL21(DE3), purified to homogeneity
T1 sequence (Q93009 53-206): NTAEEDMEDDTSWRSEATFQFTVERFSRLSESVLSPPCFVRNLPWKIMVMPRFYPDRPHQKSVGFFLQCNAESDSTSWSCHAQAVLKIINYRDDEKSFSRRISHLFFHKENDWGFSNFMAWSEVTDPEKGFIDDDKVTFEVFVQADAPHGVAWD

[2] = target: T2, HAUSP TRAF-like domain (residues 1–206) (UniProt Q93009 1-206); assay: as above
T2 construct: Construct not described in the methods; source: purified to homogeneity as previously described
T2 sequence (Q93009 1-206): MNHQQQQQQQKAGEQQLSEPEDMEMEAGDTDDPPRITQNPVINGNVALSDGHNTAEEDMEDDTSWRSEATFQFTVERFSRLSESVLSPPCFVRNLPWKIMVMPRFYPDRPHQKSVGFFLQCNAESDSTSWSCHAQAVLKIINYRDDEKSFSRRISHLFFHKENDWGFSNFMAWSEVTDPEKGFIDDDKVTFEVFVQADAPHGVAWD

[3] = target: T1, HAUSP TRAF-like domain (residues 53–206); assay: ITC; 10 mM HEPES (pH 8.0), 100 mM NaCl; 4 °C

| Binder | binding result [1] | also measured |
| --- | --- | --- |
| B1 | binds | – |
| B2 | binds | – |
| B3 | – | binding result [2]: binds |
| B4 | – | Kd [3]: 3000 nM |
